Measured values from patent US20200262873A1.
Numbering of substitutions follows the chain as printed.

B1: Recombinant type immunoglobulin κ light chain binding protein KBP0 (designed binder)
chain: KETPETPEEPKEEVTIKVNLIFADGKTQTATFKGTFEEATAEAYRYADLLAKVNGEYTADLEDGGYTINIKFAGKKETPETPEEPKEEVTIKVNLIFADGKTQTATFKGTFEEATAEAYRYADLLAKVNGEYTADLEDGGYTINIKFAGKKETPETPEEPKEEVTIKVNLIFADGKTQTATFKGTFEEATAEAYRYADLLAKVNGEYTADLEDGGYTINIKFAGKKETPETPEEPKEEVTIKVNLIFADGKTQTATFKGTFEEATAEAYRYADLLAKVNGEYTADLEDGGYTINIKFAGK
B2: Recombinant immunoglobulin κ light chain binding protein KBP2 (designed binder)
chain: B1 chain with V18H, V93H, V168H, V243H
B3: Recombinant immunoglobulin κ light chain binding protein KBP8 (designed binder)
chain: B1 chain with E38K, E113K, E188K, E263K
B4: Recombinant immunoglobulin κ light chain binding protein KBP10 (designed binder)
chain: B1 chain with Y57H, Y132H, Y207H, Y282H
B5: Recombinant immunoglobulin κ light chain binding protein KBP5 (designed binder)
chain: B1 chain with A30H, A105H, A180H, A255H
B6: Recombinant immunoglobulin κ light chain binding protein KBP4 (designed binder)
chain: B1 chain with Q28H, Q103H, Q178H, Q253H
B7: Recombinant immunoglobulin κ light chain binding protein KBP7 (designed binder)
chain: B1 chain with G34H, G109H, G184H, G259H
B8: Recombinant immunoglobulin κ light chain binding protein KBP1 (designed binder)
chain: B1 chain with I16H, I91H, I166H, I241H
B9: Recombinant immunoglobulin κ light chain binding protein KBP9 (designed binder)
chain: B1 chain with E42K, E117K, E192K, E267K
B10: Recombinant immunoglobulin κ light chain binding protein KBP11 (designed binder)
chain: B1 chain with I70H, I145H, I220H, I295H
B11: Recombinant immunoglobulin κ light chain binding protein KBP6 (designed binder)
chain: B1 chain with F32H, F107H, F182H, F257H
B12: Recombinant immunoglobulin κ light chain binding protein KBP3 (designed binder)
chain: B1 chain with L20H, L95H, L170H, L245H
B13: Recombinant immunoglobulin κ light chain binding protein KBP12 (designed binder)
chain: KETPETPEEPKEEVTIKVNLIFADGRTQTATFKHRFEEATAKAYRYADLLAKVQGEYTADLEDGGYTINIKFAGKKETPETPEEPKEEVTIKVNLIFADGRTQTATFKHRFEEATAKAYRYADLLAKVQGEYTADLEDGGYTINIKFAGKKETPETPEEPKEEVTIKVNLIFADGRTQTATFKHRFEEATAKAYRYADLLAKVQGEYTADLEDGGYTINIKFAGKKETPETPEEPKEEVTIKVNLIFADGRTQTATFKHRFEEATAKAYRYADLLAKVQGEYTADLEDGGYTINIKFAGK
B14: Recombinant immunoglobulin κ light chain binding protein KBP13 (designed binder)
chain: B13 chain with H34G, Y57H, H109G, Y132H, H184G, Y207H, H259G, Y282H
B15: Recombinant immunoglobulin κ light chain binding protein KBP14 (designed binder)
chain: B13 chain with F32H, H34G, F107H, H109G, F182H, H184G, F257H, H259G

Target: human IgG (IgG Sepharose 6 Fast Flow, GE Healthcare Biosciences Corp.) (human)
Experiment: IgG Sepharose 6 Fast Flow column; bound at neutral pH, eluted at pH 3.0 then pH 2.5; peak area A/(A+B)

Row | Binder | Antibody dissociation rate (%) at pH 3.0 [%]
1 | B1 | 50
2 | B2 | 98
3 | B3 | 80
4 | B4 | 97
5 | B5 | 92
6 | B6 | 95
7 | B7 | 97
8 | B8 | 95
9 | B9 | 95
10 | B10 | 99
11 | B11 | 92
12 | B12 | 95
13 | B13 | 100
14 | B14 | 100
15 | B15 | 100
